We go through one substance from paper PMC4824444.

In assay [1] the target is kappa-opioid peptide (KOP) receptor (human (endogenous in THP-1)) (UniProt P41145).
For assay [2] the target is unchanged. This is another data set of the same source.

UniProt P41145, sequence (P41145 whole entry): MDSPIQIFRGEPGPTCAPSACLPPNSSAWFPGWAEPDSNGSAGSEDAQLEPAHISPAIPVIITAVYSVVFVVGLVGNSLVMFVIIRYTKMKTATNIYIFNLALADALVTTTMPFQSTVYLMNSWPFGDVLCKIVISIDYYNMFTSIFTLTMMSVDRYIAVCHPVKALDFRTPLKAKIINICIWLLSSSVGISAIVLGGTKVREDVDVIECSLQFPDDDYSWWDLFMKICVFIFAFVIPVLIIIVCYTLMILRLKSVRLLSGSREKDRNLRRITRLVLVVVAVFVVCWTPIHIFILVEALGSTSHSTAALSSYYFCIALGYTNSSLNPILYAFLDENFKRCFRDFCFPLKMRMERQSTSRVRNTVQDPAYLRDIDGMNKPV

In assay [1], Dynorphin 1-7 (peptide) yielded a reduction of LPS-stimulated IL-1β and TNF-α release from differentiated THP-1 cells by DYN 1-7 (0.1 μM, 1 nM, 10 pM; 24 hr; AlphaLISA); reversed by ML-190 at 10 pM (IL-1β, TNF-α) and at 1 nM (TNF-α) of 15 to 30%. Also, the inhibition of LPS-stimulated NF-κB/p65 nuclear translocation in differentiated THP-1 cells by DYN 1-7 at 10 nM, relative to the LPS control group; reversed by the KOP receptor antagonist ML-190 (1 μM) in assay [2] was 44%.
